“Also recorded” adds a separate entry of the source.
Tests used:
[1] = target: T1, purified human α5β1-integrin (Homo sapiens, UniProt P05556+P08648); test: Solid phase dot-ELISA: α5β1-integrin binding to immobilized uPAR peptides and suPAR; conditions: for α5β1-integrin binding to immobilized peptide: peptide immobilized on nitrocellulose, α5β1-integrin 750 ng/ml
T1 construct: purchased Chemicon International (Temecula, Calif.)
Protocol: FIGS. 1A-H show the interaction between α5β1-integrin and immobilized uPAR and uPAR-derived synthetic peptides through solid-phase dot-ELISA. […] Bound integrin was detected with anti-α5 integrin antibody followed by goat anti-rabbit IgG (H+L) HRP conjugated secondary antibody and developed with enhanced chemiluminescence (“ECL”). FIG. 1B is a graph showing that binding of integrin to suPAR is saturable. SuPAR (1.5 μg) was immobilized on nitrocellulose membrane in triplicates, incubated with 0, 0.1, 0.5, 1, 2, and 4 μg/ml of α5β1-integrin and tested for integrin binding as in FIG. 1A. The dots were scanned with NIH Image. Mean and SE are shown. […] Peptides representing regions located in each of the three uPAR-domains were immobilized, incubated with α5β1-integrin, and analyzed as in FIG. 1A. Only peptide 240-248 binds α5β1-integrin. FIG. 1D is a graph showing that peptide 240-248 inhibits integrin binding to suPAR. The α5β1-integrin (750 ng/ml) was pre-incubated for 15 min at room temperature with 100 fold molar excess of 240-248 or 17-24 peptides, or with no peptide (Control) and the mixtures were applied to immobilized suPAR (1.5 μg), 2 dots per mixture, and developed as in FIG. 1A. The dots were scanned with NIH Image. The results (bars) show % of control, the lines show range. FIG. 1E is a graph showing binding of α5β1- and α3β1-integrin to suPAR and peptide 240-248. Dot-ELISA was performed in duplicate as in FIG. 1A, except that purified α5β1-integrin and α3β1-integrin (750 ng/ml) were used. Bound integrins were detected with the appropriate previously titrated antibodies followed by goat anti-rabbit IgG (H+L) HRP conjugated secondary antibody and detection with ECL. The graph represents the mean and range of two values: α5β1-integrin binding to peptide 240-248 (▪) or SuPAR (▴); α3β1-integrin binding to peptide 240-248 ([…]) and SuPAR (x). […] Peptide 240-248 (domain III), 17-24 (domain I), and the S245A mutant of peptide 240-248 were immobilized and tested for integrin binding as in FIG. 1A. FIGS. 1G-H show the crystal structure of human uPAR shown as a surface representation. The three individual domains of uPAR in FIG. 1G are indicated as follows: D1 is on the right side, DII is on the top of the model, and Diii is on the left of the model. In FIG. 1H, the order of the domains is inversed. […] The location of the COOH-terminal in uPAR domain III harboring the GPI-anchor is indicated by the arrow (FIG. 1H). FIGS. 1G-H were created by the program PyMol (DeLano Scientific) using the coordinates 1YWH.
FIGS. 2A-B show solid phase dot-ELISA of suPAR. […] Binding was detected as in FIG. 1A and the dots were scanned with NIH Image. Mean of the two-scanned value for each suPAR concentration are shown in the bottom panel. Mutation of residues in the 239-249 sequence reduced the integrin binding by ˜50 to 94%. suPAR^E33A (▪), suPAR^wt (▴), suPAR^R239A (♦), suPAR^H249A (x), suPAR^Q248A (∘), suPAR^M246A ([…]), suPAR^S245A (□).
Synthetic uPAR-derived peptides and mutant proteins were diluted to 0.5, 1, and 2 μg/100 μl of PBS. […] The strips, pinned to the bottom of a plastic box, were washed with TBS with 0.1% Tween 20, overlaid with 500 μl of rabbit anti-integrin α5 polyclonal antibody (1:650) for 1 hr at RT, washed with TBST twice, incubated with goat anti-rabbit IgG (H+L) HRP conjugated secondary antibody (1:2000) for 1 hr, washed 3 times with TBST, and developed with ECL. The dots were scanned with NIH image.

T-HEp3 cells [2] = test: Fibronectin-fibrils disruption; assay type: cell-based, human; conditions: cells displaying fibronectin fibrils; control had 90.2% fibril positive cells; compounds 5 and 10 μM, 16 h
Protocol: To test the effects of fibronectin-fibril disruption by the compounds, T-HEp3 cells were incubated in 5% fibronectin-depleted fetal bovine serum (FBS)/DMEM with 0, 2.5, 5, 7, and 10 μM of the compounds or anti-uPAR antibody (R2, 20 μg/ml) or anti-α5β1 antibody (BIIG2, 20 μg/ml) or MEK inhibitor (PD98059, 25 μM) as a […] at room temperature for 15 min prior to plating them in chambered slides. […] The cells were fixed with 3% paraformaldehyde for 20 min and the bound fibronectin was detected using rabbit anti-human fibronectin antibody and with FITC-conjugated secondary antibody.
Compounds MS0012479 and MS0019128 and their analogs were tested for fibronectin-fibril disruption. […] A total of 700 to 1150 cells were counted in 5 individual fields. Cells displaying fibronectin fibrils were then counted and expressed as a percentage of total cells. The mean obtained from the compound-treated cells was expressed as a percentage of control. The control had 90.2% of fibril positive cells (Table 2).

T-HEp3 cells [3] = test: Screening of compounds by luciferase assay (Luc-Elk activity as readout for ERK); assay type: cell-based, human; conditions: 5 μM compound, 16 h
Protocol: To test the effect of uPAR-integrin disruption by uPAR-docked compounds on ERK activation, T-HEp3 cells were transiently co-transfected with pFA-Elk1-fusion plasmid and pD700-luciferase plasmid in a 96-well plate. These plasmids report the state of ERK activation through luciferase activity level. After 24 h of transfection, cells were serum starved for 5 h and incubated with PD98059 (Calbiochem, San Diego, Calif.) (25 and 50 μM) and 5 μM of each compound prepared in DMEM. Following 16 h of incubation with compounds, the cells were lysed directly in Steady glo-luciferase lysis buffer (1:1) from Promega and read on Tecan Safire2™ using Magellan 6.0 software. Histographs representing the percent inhibition of Luc-Elk activity as readout for ERK reduction were generated.

β1-integrin = target: T2, β1-integrin (Homo sapiens, UniProt P05556); test: Detection of active β1 integrin by FACS (HUTS-4 antibody); assay type: cell-based; conditions: vector transfected HEK293 cells; 1 mM MnCl2; untreated 50.9%
T2 construct: endogenous in cells; host or cells: HEK293 cells (ATCC), transiently transfected with pcDNA3.1 vector, uPAR^wt or uPAR^S245A
T2 sequence (P05556 21-798): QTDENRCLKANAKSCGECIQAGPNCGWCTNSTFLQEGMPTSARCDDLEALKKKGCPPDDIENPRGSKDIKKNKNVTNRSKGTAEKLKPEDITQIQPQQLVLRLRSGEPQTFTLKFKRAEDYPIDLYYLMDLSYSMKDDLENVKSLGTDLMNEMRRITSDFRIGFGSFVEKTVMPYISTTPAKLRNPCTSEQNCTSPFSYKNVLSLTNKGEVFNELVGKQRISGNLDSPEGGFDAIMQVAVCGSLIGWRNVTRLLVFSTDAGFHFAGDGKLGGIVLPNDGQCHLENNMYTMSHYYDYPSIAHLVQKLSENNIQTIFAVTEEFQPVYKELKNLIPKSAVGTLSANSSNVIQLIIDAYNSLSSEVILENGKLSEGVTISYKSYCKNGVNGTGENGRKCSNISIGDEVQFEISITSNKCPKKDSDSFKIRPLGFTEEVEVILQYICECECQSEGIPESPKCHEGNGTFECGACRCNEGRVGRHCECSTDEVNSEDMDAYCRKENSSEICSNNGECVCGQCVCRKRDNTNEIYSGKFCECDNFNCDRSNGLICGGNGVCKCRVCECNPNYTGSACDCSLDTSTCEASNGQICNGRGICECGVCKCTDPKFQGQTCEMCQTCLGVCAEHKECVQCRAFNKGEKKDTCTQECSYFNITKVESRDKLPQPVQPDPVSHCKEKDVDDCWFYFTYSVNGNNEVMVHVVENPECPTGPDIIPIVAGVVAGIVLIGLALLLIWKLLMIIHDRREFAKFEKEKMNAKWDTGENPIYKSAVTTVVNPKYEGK
T2 sequence (P08648 42-894 partner limits assumed): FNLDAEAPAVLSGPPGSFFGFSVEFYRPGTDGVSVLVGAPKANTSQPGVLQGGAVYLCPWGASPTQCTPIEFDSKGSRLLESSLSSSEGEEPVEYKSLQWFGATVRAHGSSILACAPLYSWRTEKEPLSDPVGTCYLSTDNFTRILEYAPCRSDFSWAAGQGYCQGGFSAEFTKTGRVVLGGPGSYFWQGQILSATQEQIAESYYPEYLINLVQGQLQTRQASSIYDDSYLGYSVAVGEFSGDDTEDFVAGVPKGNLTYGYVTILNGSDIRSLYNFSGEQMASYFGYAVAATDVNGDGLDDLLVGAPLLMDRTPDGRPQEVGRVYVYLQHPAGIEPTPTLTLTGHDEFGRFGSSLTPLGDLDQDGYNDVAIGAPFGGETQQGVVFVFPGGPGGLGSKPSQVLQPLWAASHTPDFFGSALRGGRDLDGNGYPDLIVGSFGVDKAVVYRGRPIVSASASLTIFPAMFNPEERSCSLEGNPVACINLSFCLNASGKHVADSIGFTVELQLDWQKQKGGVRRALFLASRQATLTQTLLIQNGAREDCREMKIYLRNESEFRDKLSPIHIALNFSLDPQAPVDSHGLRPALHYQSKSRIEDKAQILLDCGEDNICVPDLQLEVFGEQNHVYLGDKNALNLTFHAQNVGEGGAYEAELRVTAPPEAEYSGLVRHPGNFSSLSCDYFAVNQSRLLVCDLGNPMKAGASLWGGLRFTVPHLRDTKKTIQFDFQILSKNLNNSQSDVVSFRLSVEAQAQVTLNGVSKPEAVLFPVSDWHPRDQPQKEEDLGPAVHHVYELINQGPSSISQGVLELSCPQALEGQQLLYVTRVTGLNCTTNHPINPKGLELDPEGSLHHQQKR
T2 sequence (P08648 895-1049 partner limits assumed): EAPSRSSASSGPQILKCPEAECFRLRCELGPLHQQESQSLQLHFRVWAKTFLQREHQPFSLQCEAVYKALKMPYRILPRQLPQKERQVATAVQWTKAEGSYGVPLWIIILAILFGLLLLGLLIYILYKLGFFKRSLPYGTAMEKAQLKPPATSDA
Protocol: FIGS. 3A-C illustrate that […] expressed in cells has reduced ability to activate α5β1-integrin. […] HEK293 cells were transfected with pcDNA3.1 (vector), uPAR^wt, or uPAR^S245A and used 48 hrs later. Vector-transfected cells incubated with medium alone or with medium with 1 mM MnCl2, followed by HUTS-4 and uPAR-transfected cells (uPAR^wt and uPAR^S245A) incubated with HUTS-4 or isotype matched Ig (IgG2b) were then incubated with secondary rabbit-anti mouse IgG coupled to Alexa 488. uPAR expression was detected using anti-uPAR antibody (R2). In the upper panels, the results are plotted as number of events vs. fluorescence intensity. The numbers indicate percent of total population above the median fluorescence intensity determined in vector-transfected cells. The lower panel relates to overlay of uPAR in uPAR^wt (black line) and uPAR^S245A (grey line) transfected cells. […] Cell-bound fibronectin was detected by immunofluorescence 48 hrs after transfection. […] HEK293 cells plated in 60 mm dishes were transfected and treated as in FIG. 3B, and the DOC-insoluble fibronectin was analyzed by 6% PAGE and Western blot under non-reducing conditions. […]
HEK293 cells were transiently transfected with pcDNA3.1, uPAR^wt, and uPAR^S245. […] Finally, cells were washed and suspended in 400 μl of FACS buffer and analyzed in FACS Canto (Becton Dickinson, Calif.) using FACSDiva software. […]

[4] = target: α5β1-integrin endogenous on HEK293, D-HEp3 and T-HEp3 cells (human) (UniProt P08648); test: cell-based or functional assay
Sequence of α5β1-integrin endogenous on HEK293, D-HEp3 and T-HEp3 cells (human) (P08648 42-1049, chain 1 of 2): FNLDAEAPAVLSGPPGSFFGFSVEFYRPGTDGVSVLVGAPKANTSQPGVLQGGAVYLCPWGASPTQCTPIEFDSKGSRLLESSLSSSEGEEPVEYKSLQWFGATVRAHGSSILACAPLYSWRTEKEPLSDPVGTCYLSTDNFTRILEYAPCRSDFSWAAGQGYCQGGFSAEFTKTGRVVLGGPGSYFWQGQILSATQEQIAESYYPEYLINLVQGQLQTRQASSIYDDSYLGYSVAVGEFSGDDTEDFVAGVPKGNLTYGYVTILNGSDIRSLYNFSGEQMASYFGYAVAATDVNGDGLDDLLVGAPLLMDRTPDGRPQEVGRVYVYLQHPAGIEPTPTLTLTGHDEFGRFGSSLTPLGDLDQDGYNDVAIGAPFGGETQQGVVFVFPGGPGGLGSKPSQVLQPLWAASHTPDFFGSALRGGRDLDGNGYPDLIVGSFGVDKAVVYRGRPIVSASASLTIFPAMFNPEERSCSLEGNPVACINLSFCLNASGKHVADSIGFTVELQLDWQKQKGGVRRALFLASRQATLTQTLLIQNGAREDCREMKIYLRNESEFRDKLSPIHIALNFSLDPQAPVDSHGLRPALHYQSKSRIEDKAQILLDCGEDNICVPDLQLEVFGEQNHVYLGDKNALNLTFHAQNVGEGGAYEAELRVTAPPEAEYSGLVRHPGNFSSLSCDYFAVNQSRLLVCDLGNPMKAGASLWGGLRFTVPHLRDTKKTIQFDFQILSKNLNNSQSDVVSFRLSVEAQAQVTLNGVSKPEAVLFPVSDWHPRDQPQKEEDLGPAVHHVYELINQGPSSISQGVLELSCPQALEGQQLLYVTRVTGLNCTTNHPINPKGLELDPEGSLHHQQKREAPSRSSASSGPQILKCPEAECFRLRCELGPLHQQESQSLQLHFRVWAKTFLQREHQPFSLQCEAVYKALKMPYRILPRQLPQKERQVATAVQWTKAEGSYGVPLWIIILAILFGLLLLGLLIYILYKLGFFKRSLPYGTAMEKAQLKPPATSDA
Sequence of α5β1-integrin endogenous on HEK293, D-HEp3 and T-HEp3 cells (human) (P05556 21-798, chain 2 of 2, further chain): as the sequence (P05556 21-798) above

[5] = target: endogenous β1 integrin on HEK293 cells (active state) (human) (UniProt P05556); test: flow cytometry, vector-transfected HEK293 cells, medium alone
Sequence of endogenous β1 integrin on HEK293 cells (active state) (human) (P05556 21-798): as above

[6] = target: endogenous β1 integrin on HEK293 cells (active state) (human) (UniProt P05556); test: flow cytometry, vector-transfected HEK293 cells treated with Mn++ (1 mM MnCl2)
[7] = target: endogenous β1 integrin on HEK293 cells (active state) (human) (UniProt P05556); test: flow cytometry, HEK293 cells expressing uPAR^S245A
[8] = target: endogenous β1 integrin on HEK293 cells (active state) (human) (UniProt P05556); test: flow cytometry, HEK293 cells expressing uPAR^wt
[9] = target: T3, immobilized pro-uPA^S356A (Homo sapiens, UniProt P00749, S376A); test: Kinetics of pro-uPA/uPAR interaction by surface plasmon resonance; assay type: binding; conditions: soluble uPAR (residues 1-283), 20° C.
T3 construct: Coupling of pro-uPA^S356A to the sensor chip by EDC/NHS

T1 sequence (P08648 42-894 limits assumed): as the sequence (P08648 42-894 partner limits assumed) above
T1 sequence (P08648 895-1049 limits assumed): as the sequence (P08648 895-1049 partner limits assumed) above
T1 sequence (P05556 21-798): as the sequence (P05556 21-798) above

Molecule: 66-74: synthetic uPAR-derived peptide, domain I 66-74: LTEVVCGLD (SEQ ID NO:6)
- α5β1-integrin binding to immobilized peptide [1]: no binding

Molecule: 84-95: synthetic uPAR-derived peptide 84-95: AVTYSRSRYLEC (SEQ ID NO:7)
- α5β1-integrin binding to immobilized peptide [1]: no binding

Molecule: 108-118: synthetic uPAR-derived peptide, domain II 108-118: GRHQSLQCRSP (SEQ ID NO:8)
- α5β1-integrin binding to immobilized peptide [1]: no binding

Molecule: N=C(N/N=C\c1cccc(O)c1)c1ccccn1 [MS0019126]
- Quantification (% of control) (T-HEp3 cells [2]): 66.0 % of control
- ERK inhibitory activity (T-HEp3 cells [3]): very strong; also recorded: showed ERK inhibitory activity

Molecule: [Mn+2] [Mn^++]
- population with fluorescence above the median (HUTS-4) (β1-integrin): 86.2%

Molecule: BIIG2 (α5β1-integrin function blocking antibody)
- fibronectin-fibril positive T-HEp3 cells, % of control [4]: 24.1 % of control

Molecule: HUTS-4 antibody
- % of population with fluorescence intensity above the median [5]: 50.9%
- % of population with fluorescence intensity above the median [6]: 86.2%
- % of population with fluorescence intensity above the median [7]: 44.6%
- % of population with fluorescence intensity above the median [8]: 74.4%

Molecule: uPAR mutant E33A: purified soluble uPAR (residues 1-283) with single amino acid mutation E33A in domain I
- α5β1-integrin binding of full-length recombinant suPAR with single amino acid mutation ([1]; suPAR 0.5, 1.0, 2.0 μg immobilized, integrin 750 ng/ml): no effect
- koff [9]: 2.19 10^−4 S^−1
- kon [9]: 2.52 10^5 m^−1 S^−1

Molecule: uPAR mutant H249A: purified soluble uPAR single amino acid mutant H249A
- koff [9]: 1.92 10^−4 S^−1
- kon [9]: 3.84 10^5 m^−1 S^−1

Molecule: uPAR mutant L66A: soluble uPAR single site mutant L66A, control known to affect uPA-uPAR interaction
- koff [9]: 10.6 10^−4 S^−1
- kon [9]: 2.26 10^5 m^−1 S^−1

Molecule: uPAR mutant R239A: purified soluble uPAR single amino acid mutant R239A
- koff [9]: 1.48 10^−4 S^−1
- kon [9]: 2.33 10^5 m^−1 S^−1
